Measurements from patent publication US20240352419A1, “METHODS AND COMPOSITIONS FOR DIFFERENTIATION OF PLURIPOTENT STEM CELLS AND DERIVED HEMATOPOIETIC LINEAGE CELLS” (NUWACELL BIOTECHNOLOGIES CO., LTD., priority 2022, published 2024).

Legend:
K562 cells = assay: Cytotoxicity of Stage 3 iNK cells by CFSE/7AAD assay; type: cell-based; conditions: added to Stage 3 medium (IL-10 20 ng/mL, IL-18 50 ng/mL), E:T 3:1, 4 hr, FIG. 13A
Method: hiPSCs were prepared as described in CN108373998B. On Day −1, Embryoid body (EB) formation (Stage 1-1) was carried out by placing individualized hiPSCs in E8 medium containing 10 μM Blebbistatin in T25 flasks on a bellydancer and culture overnight. On Day 0, lateral mesoderm differentiation (Stage 1-2) was initiated by changing the medium to a Stage 1-2 differentiation medium comprising IF-4 basal medium and supplemented with BMP4 (25 ng/mL), VEGF (15 ng/ml), bFGF (0.5 ng/mL) and CHIR99021 (4 μM) for 2 days. On Day 2, lateral mesoderm differentiation (Stage 1-3) continued for 1 day in a Stage 1-3 differentiation medium comprising IF-4 basal medium and supplemented with BMP4 (25 ng/mL), VEGF (50 ng/mL) and bFGF (0.5 ng/mL) and CHIR99021 (1 μM). On Day 3, HE specification (Stage 1-4) was initiated by adding a Stage 1-4 differentiation medium comprising IF-4 basal medium and supplemented with VEGF (15 ng/ml), bFGF (5 ng/ml), XAV939 (5 μM) for 1 day. […] On Day 11 of co-culture, iNK cells were collected and stained with CD56-PE antibody (BD, #555516), the percentage of CD56+ cells was analyzed by flow cytometry. The cytotoxicity of Stage 3 iNK cells towards K562 cells was detected by CFSE/7AAD assay after 4 hr co-culture at E:T of 3:1.

iNK cells = assay: Stage 3 expansion of iNK cells co-cultured with feeder cells; type: cell-based, human; conditions: IL-18 (10-50 ng/mL) combined with IL-2 (100 IU/mL) vs IL-2 only, Stage 3, 2 weeks, FIG. 13B
Method: hiPSCs were prepared as described in CN108373998B. On Day −1, Embryoid body (EB) formation (Stage 1-1) was carried out by placing individualized hiPSCs in E8 medium containing 10 μM Blebbistatin in T25 flasks on a bellydancer and culture overnight. On Day 0, lateral mesoderm differentiation (Stage 1-2) was initiated by changing the medium to a Stage 1-2 differentiation medium comprising IF-4 basal medium and supplemented with BMP4 (25 ng/ml), VEGF (15 ng/ml), bFGF (0.5 ng/ml) and CHIR99021 (4 μM) for 2 days. On Day 2, lateral mesoderm differentiation (Stage 1-3) continued for 1 day in a Stage 1-3 differentiation medium comprising IF-4 basal medium and supplemented with BMP4 (25 ng/ml), VEGF (15 ng/mL) and bFGF (0.5 ng/mL) and CHIR99021 (1 μM). On Day 3, HE specification (Stage 1-4) was initiated by adding a Stage 1-4 differentiation medium comprising IF-4 basal medium and supplemented with VEGF (15 ng/ml), bFGF (5 ng/ml), XAV939 (5 μM) for 1 day. On Day 4 (the end of Stage 1-4), HP differentiation (Stage 1-5) in was initiated by adding a Stage 1-5 differentiation medium comprising IF-4 basal medium and supplemented with SCF (10 ng/ml), Flt3L (10 ng/ml), VEGF (15 ng/ml) and bFGF (5 ng/mL). […] On Day 14 of co-culture, iNK cells were collected and stained with CD56-PE antibody (BD, #555516), and the percentage of CD56+ cells was analyzed by flow cytometry. […]

For “IL-18: interleukin added to Stage 3 expansion and maturation medium”, the “cytotoxicity of iNK cells” value (K562 cells) was “significantly improve” and the “expansion fold of iNK cells” value (iNK cells) was “improve the expansion fold”.
